According to patent publication US20050152903A1 (CRITICAL THERAPEUTICS, published 2005):
Values belong to the binder of their own block, whether it stands above or below them. Where no end group is shown, it is not given here.

B1: peptide corresponding to amino acid residues 61-78 of human HMGB1 (peptide)
peptide: EDMAKADKARYEREMKTY
modifications: also: biotinylated (position not given here)
notes: also called HMGB1 61-78 peptide; huHMGB1-61-78-B
B3: peptide corresponding to amino acid residues 151-168 of human HMGB1 (peptide)
peptide: LKEKYEKDIAAYRAKGKP
modifications: also: biotinylated (position not given here)
B4: 2G7 HMGB1 mAb (antibody, V domains shown)
VH: QVQLQQSGAELVRPGSSVKISCKASGYAFSSYWMNWVKQRPGQGLEWIGQIYPGDGDTNYNGKFKGKATLTSDKSSSTAYMQLSSLTSEDSAVYFCARREPYGSYVGFGFWGQGTLVTVSA
VL: ENVLTQSPAIMSASPGEKVTMTCSASSSVSYMHWYQQKSSTSPKLWIYDTSKLASGVPGRFSGSGSGNSYSLTISSMEAEDVATYYCFQGSGYPPTFGGGTKLEIK
notes: Murine hybridoma monoclonal antibody (ATCC PTA-5432); also called 3-2G7-1-1-1; CT3-2G7
B5: 2E11 HMGB1 mAb (antibody, V domains shown)
VH: QVQLQQSGPELVRPGTSVKISCKTSGYTFLTYWMNWVKQRPGQGLEWIGQIFPASDNTYYNEMFKDKATLTVDTSSSTAYIHLSSLTSEDTAVYFCAREDSMDYWGQGTSVTVSS
VL: DIQMTQTTSSLSASLGDRVTVSCSASRGINNYLNWYQQKPDGTVKFLIYYTSSLHSGVPSRFSGSGSGTDYSLTISNLEPEDIATYYCQQYSKLPWTFGGGTKLEFK
notes: Murine hybridoma monoclonal antibody (ATCC PTA-5431); also called 2E111-1-1-2; CT3-2E11
B6: peptide corresponding to amino acid residues 46-63 of human HMGB1 (peptide)
peptide: SERWKTMSAKEKGKFEDM
modifications: also: biotinylated (position not given here)
notes: also called HMGB1 46-63 peptide; huHMGB1-46-63-B

Columns and labels:
2G7 HMGB1 mAb [1] = target: B4; test: competition ELISA: peptide in solution against plate-bound recombinant rat HMGB1
Method: (§1) HMGB1 peptide binding experiments using 2G7 HMGB1 mAb were conducted. As described, biotinylated synthetic peptides corresponding to either amino acid residues 46-63 of human HMGB1 or amino acid residues 61-78 of human HMGB1 were prepared and analyzed for binding to 2G7 HMGB1 mAb (2G7) by ELISA. Briefly, 2 μg/ml of 2G7 HMGB1 mAb was added to plate wells containing either the HMGB1 46-63 peptide or the HMGB1 61-78 peptide at each of the indicated concentrations (0, 0.33, 1, 3, 9, 27, 81 and 243 μM peptide) for one hour at 25° C. to prepare antibody-peptide samples. ELISA plates were coated with 10 μg/ml of recombinant rat HMGB1, and incubated overnight at 4° C. The plates were then blocked with reconstituted milk for one hour at 37° C. Antibody-peptide samples were then added at the concentrations listed above and incubated for one hour at room temperature. The plates were then washed and incubated with Streptavidin-HRP. After washing, the plates were developed with TMB (Invitrogen, San Diego, Calif.) and absorbance at 655 nm was measured using a plate reader.

[2] = target: T1, peptide corresponding to amino acid residues 67-84 of human HMGB1 (human); test: peptide ELISA (FIG. 24)
T1 construct: Non-biotinylated; also called HMGB1 67-84 peptide; Human HMGB1-67-84
T1 peptide: DKARYEREMKTYIPPKGE
Method: (§2) Biotinylated peptides bound to React-Bind Streptavidin-Coated Plates (Pierce, Rockford, Ill., Catalog # 15501) and non-biotinylated peptides bound to poly-D-lysine coated ELISA plates were used in anti-peptide ELISAs. Biotinylated peptides corresponding to particular 18 amino acid regions of human HMGB1, as well as a longer peptide corresponding to amino acid residues 9-85 of human HMGB1, were prepared and analyzed for binding to particular anti-HMGB1 monoclonal antibodies by ELISA. These peptides, and their respective sequences, are depicted in FIG. 13A. Poly-D-lysine coated plates were prepared by adding 60-100 μl/well of 0.1 mg/ml solution of poly-D-lysine in water. Plates were then incubated at room temperature for 5 minutes and were rinsed with water to remove the solution.
(§3) Briefly, using the molecular weight of the respective peptide, 1 mM peptide solutions were prepared in pyrogen-free water and diluted in 1× phosphate buffered saline. Plate wells were washed three times with 200 μl of PBS and 100 μl of the various peptide solutions were added to designated wells. The plates were then covered and incubated for 60 minutes at room temperature. The wells were then washed three times with PBS, 0.05% polyoxyethylenesorbitan (referred to herein as Tween 20™) using a volume greater than 100 μl. […]

[3] = target: B1; test: peptide ELISA (FIG. 13B)
Method: as §2
(§4) Briefly, using the molecular weight of the respective peptide, 1 mM peptide solutions were prepared in pyrogen-free water and diluted in 1× phosphate buffered saline. Plate wells were washed three times with 200 μl of PBS and 100 μl of the various peptide solutions were added to designated wells. The plates were then covered and incubated for 60 minutes at room temperature. The wells were then washed three times with PBS, 0.05% polyoxyethylenesorbitan (referred to herein as Tween 20™) using a volume greater than 100 μl. 200 μl of blocking buffer (5% nonfat dry milk in PBS, 0.05% Tween 20™) was added to each of the wells. The plates were covered and incubated for 60 minutes at room temperature. The wells were then washed three times with PBS, 0.05% Tween 20™ using a volume greater than 100 μl.

[4] = target: T2, peptide corresponding to amino acid residues 53-70 of human HMGB1 (human); test: peptide ELISA
T2 construct: Non-biotinylated; also called HMGB1 53-70 peptide; huHMGB1-53-70
T2 peptide: SAKEKGKFEDMAKADKAR

[5] = target: T3, peptide consisting of a scrambled sequence of amino acid residues 61-78 of human HMGB1; test: peptide ELISA
T3 construct: Non-biotinylated; scrambled control; also called Human HMGB1-61-78_scr
T3 peptide: AKDYMEARKDTEYKMARE

recombinant rat HMGB1 = target: T4, recombinant rat HMGB1 (rat, UniProt P63159 1-215); test: sandwich ELISA, mAb as capture antibody, polyclonal antibody or 6E6 as detector
T4 sequence: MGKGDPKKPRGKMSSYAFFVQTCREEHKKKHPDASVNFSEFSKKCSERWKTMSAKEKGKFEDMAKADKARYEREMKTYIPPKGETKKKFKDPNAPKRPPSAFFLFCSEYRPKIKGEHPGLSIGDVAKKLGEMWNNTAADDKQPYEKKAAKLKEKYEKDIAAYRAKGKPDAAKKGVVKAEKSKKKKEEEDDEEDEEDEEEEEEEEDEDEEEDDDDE
Method: In the first method, ELISA plates were coated with a number of purified anti-HMGB1 mAbs (e.g., 2E11 HMGB1 mAb, 2G5 HMGB1 mAb, 2G7 HMGB1 mAb, 6E6 HMGB1 mAb), and incubated overnight at 4° C. The plates were then blocked with PBS, 1% BSA for one hour at 37° C. After washing, recombinant rat HMGB1 was added at the indicated concentrations, and the plates were incubated at room temperature for 1 hour. The plates were then washed and incubated with rabbit polyclonal antibodies against HMGB1 at 2 μg/ml (see U.S. Pat. Nos. 6,303,321, 6,448,223 and 6,468,533). After 1 hour at room temperature, the plates were washed and incubated for 30 minutes with goat anti-rabbit Ig-HPR (Jackson ImmunoResearch Laboratories, West Grove, Pa.) diluted at 1:1000 in PBS. After washing, the plates were developed with TMB (Invitrogen, San Diego, Calif.) and absorbance at 655 nm was measured using a plate reader.
As depicted in FIGS. 14 and 15, two different ELISA methods were used to examine the properties of particular anti-HMGB1 monoclonal antibodies. In one method, HMGB1 monoclonal antibodies 2E11 HMGB1 mAb, 2G5 HMGB1 mAb, 2G7 HMGB1 mAb, and 6E6 HMGB1 mAb, were used as capture antibodies and a polyclonal HMGB1 antibody was used as the detector antibody. […]

2E11 HMGB1 mAb [6] = target: B5; test: competition ELISA: peptide in solution with the antibody, plate-bound HMGB1
[7] = target: B6; test: peptide ELISA (FIG. 13B)
Method: as §2, §4

[8] = target: T2, peptide corresponding to amino acid …; test: peptide ELISA (FIGS. 22 and 23)
Method: as §2, §3

[9] = target: T5, peptide consisting of a scrambled sequence of amino acid residues 46-63 of human HMGB1; test: peptide ELISA
T5 construct: Non-biotinylated; scrambled control; also called Human HMGB1-46-63-scr
T5 peptide: RMKEESSAKDGWFTEMKK

[10] = target: T6, peptide corresponding to amino acid residues 40-57 of human HMGB1 (human); test: peptide ELISA
T6 construct: Non-biotinylated; also called HMGB1 40-57 peptide; Human HMGB1-40-57
T6 peptide: EFSKKCSERWKTMSAKEK

[11] = target: T7, peptide corresponding to amino acid residues 46-63 of human HMGB2 (human, also: biotinylated (position not given here)); test: peptide ELISA
T7 construct: also called HMGB2 46-63 peptide; huHMGB2-46-63-B
T7 peptide: SERWKTMSAKEKSKFEDM

CHO HMGB2 = target: T8, CHO HMGB2 (Chinese hamster (CHO cells), UniProt A0A8C2QD03 1-210); test: Western blot
T8 construct: also called non-recombinant (natural) HMGB2 from Chinese Hamster Ovary (CHO) cells
T8 sequence: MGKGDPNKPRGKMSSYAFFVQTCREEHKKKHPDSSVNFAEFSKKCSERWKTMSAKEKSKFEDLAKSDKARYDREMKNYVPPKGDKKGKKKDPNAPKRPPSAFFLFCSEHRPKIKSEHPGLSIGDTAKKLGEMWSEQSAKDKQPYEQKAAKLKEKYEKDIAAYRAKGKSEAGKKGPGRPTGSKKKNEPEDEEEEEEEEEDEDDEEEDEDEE

[12] = target: B3; test: peptide ELISA (FIG. 13B)
Method: as §2, §4

[13] = target: T9, peptide corresponding to amino acid residues 157-174 of human HMGB1 (human); test: peptide ELISA
T9 construct: Non-biotinylated; also called HMGB1 157-174 peptide; Human HMGB1-157-174
T9 peptide: KDIAAYRAKGKPDAAKKG

[14] = target: T10, peptide corresponding to amino acid residues 143-160 of human HMGB1 (human); test: peptide ELISA
T10 construct: Non-biotinylated
T10 peptide: PYEKKAAKLKEKYEKDIA

2G7 HMGB1 mAb [15] = target: B4; test: competition ELISA: peptide (0.33-243 µM) with 2 µg/ml antibody, plate coated with recombinant rat HMGB1
Method: as §1

2E11 HMGB1 mAb [16] = target: B5; test: competition ELISA: peptide in solution against plate-bound HMGB1

Binder: B1
binding result (2G7 HMGB1 mAb [1]): no binding (tested: up to 243 µM peptide)

binding result [2]: binds
binding result [3]: binds
binding result [4]: no binding (tested: 2 µg/ml antibody)
binding result [5]: no binding (tested: 2 µg/ml antibody)
binding result (recombinant rat HMGB1): binds
B2: 6E6 HMGB1 mAb (antibody, V domains shown)
VH: EVQLQQSGAELVKPGASVKLSCTASGFNIKDTYMHWVKQRPEQGLEWIGRIDPANGNTKYDPKFQGKATITADTSSNTAYLQLSSLTSEDTAVYYCARGAYWGQGTLVTVSA
VL: DIVLTQSPASLAVSLGQRATISCKASQSVDYDGDSYMNWYQQKPGQPPKLLIYAASNLESGIPARFSGSGSGTDFTLNIHPVEEEDAATYYCQQSNEDPFTFGSGTKLEIK
notes: Murine hybridoma monoclonal antibody (ATCC PTA-5433); also called 6E6-7-1-1; CT3-6E6

Binder: B3
binding result (2E11 HMGB1 mAb [6]): binds

Binder: B4
binding result [7]: binds
binding result [8]: binds
binding result [9]: no binding (tested: 2 µg/ml antibody)
binding result [10]: no binding (tested: 2 µg/ml antibody)
binding result [11]: no binding (tested: 2 µg/ml antibody)
binding result (recombinant rat HMGB1): binds
binding result (CHO HMGB2): no binding (tested: 2 µg/ml antibody)

Binder: B5
binding result [12]: binds
binding result [13]: no binding (tested: 2 µg/ml antibody)
binding result [14]: no binding (tested: 2 µg/ml antibody)

Binder: B6
binding result (2G7 HMGB1 mAb [15]): binds
binding result (2E11 HMGB1 mAb [16]): no binding
